Patent US20260000597A1 (priority 2018, published 2026)

Molecular target: AchR (Homo sapiens, UniProt P02708)
Assay: ELISA of screened peptide phages on AchR versus streptavidin (OD450)
Format: binding
Conditions: absorbance at 450 nm
Experimental: The output phages for the 4th and 5th rounds of biopanning in Example 13-1 were inoculated to E. coli, and plated on the agar plates so as to form 100-200 plaques per plate. The plaques were inoculated on 1 ml of an SB liquid medium containing 50 μg/ml of ampicillin by using a sterile tip, and cultured with shaking at 37° C. for 5 hours, followed by the addition of 30 μl of helper phages, and then cultured at 37° C. and 200 rpm for one day. The culture was centrifuged at 12,000 rpm for 2 minutes to collect supernatant, and 2% BSA was added to the supernatant, and used for phage screening.
In a 96-well ELISA plate, 5 μg/ml AchR or streptavidin was added at 50 μl per well, and left at 4° C. overnight. The next day, the solution in each well was discarded, followed by the addition of 2% BSA, and then blocked at room temperature for 2 hours. After the solution was all discarded, the wells were washed three times with Tris (20 mM, pH7). In addition, 100 μl of each of the phage solutions obtained from the above-prepared plaques was dispensed into wells and left at 30° C. for 1 hour. After the solution in the wells was all discarded, the wells were washed three times with Tris (20 mM, pH 7), and then the HRP-conjugated anti-M13 antibody diluted 1:2,000 was added at 100 μl per well, followed by culture at 30° C. for 1 hour. After the wells were washed three times with Tris (20 mM, pH7), 100 μl of tetramethylbenzidine was added to each well to induce a color development reaction, and then the reaction was stopped by the addition of 100 μl of 1M H2SO4, and the absorbance at 450 nm (OD450) was measured. The measured absorbance was converted into a ratio of AchR absorbance to streptavidin absorbance (AchR signal/streptavidin signal), and the results are shown in FIGS. 14 to 16.

[1] = phage ELISA, 5 μg/ml AchR, 4th and 5th round biopanning phages
[2] = ELISA of selected 14-mer (L3) peptide phages on AchR, Spep-2 positive control
[3] = ELISA of selected 11-mer (L2) peptide phages on AchR, Spep-2 positive control

Sequence of AchR (P02708 21-457): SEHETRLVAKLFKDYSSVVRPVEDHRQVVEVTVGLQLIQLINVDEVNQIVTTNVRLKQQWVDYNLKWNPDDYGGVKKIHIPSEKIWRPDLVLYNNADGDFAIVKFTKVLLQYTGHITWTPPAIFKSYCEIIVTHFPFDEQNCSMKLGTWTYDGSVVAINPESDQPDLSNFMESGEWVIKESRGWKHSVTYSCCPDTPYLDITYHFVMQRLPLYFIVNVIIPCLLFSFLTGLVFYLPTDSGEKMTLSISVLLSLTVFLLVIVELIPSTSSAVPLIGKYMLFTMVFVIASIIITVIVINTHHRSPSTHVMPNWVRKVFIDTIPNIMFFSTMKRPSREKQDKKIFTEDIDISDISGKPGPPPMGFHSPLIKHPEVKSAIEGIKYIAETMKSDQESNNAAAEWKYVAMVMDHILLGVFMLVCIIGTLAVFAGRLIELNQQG

RTKRWQLK [Peptide L1-94]
OD [1]: 0.496

L3-17 (VGPKFRKNHRRQNR; AchR binding peptide) [Peptide L3-17]
OD [2]: 0.812

L2-158 (MMTKYKKTCCK; AchR binding peptide) [Peptide L2-158]
OD [3]: 0.73

RLRKSLGK [Peptide L1-95]
OD [1]: 0.535

L2-107 (VKHKERKCQRR; AchR binding peptide) [Peptide L2-107]
OD [3]: 0.681

L3-79 (QQFKYRRECVKYGS; AchR binding peptide) [Peptide L3-79]
OD [2]: 0.701

KSRKHCNR [Peptide L1-70]
OD [1]: 0.668

KTKRGSLK [Peptide L1-101]
OD [1]: 0.599

L3-13 (YCTRIRREGMKGSE; AchR binding peptide) [Peptide L3-13]
OD [2]: 0.862

L3-194 (WAPRDRRNMGRDPA; AchR binding peptide) [Peptide L3-194]
OD [2]: 0.743

RHKRMLWR [Peptide L1-131]
OD [1]: 0.505

L3-63 (CPWRNRKAMIKGII; AchR binding peptide) [Peptide L3-63]
OD [2]: 0.794

L3-33 (LRQRSKRVLEKLRP; AchR binding peptide) [Peptide L3-33]
OD [2]: 0.751

L2-131 (MTLKHRRVYIK; AchR binding peptide) [Peptide L2-131]
OD [3]: 0.462

L2-106 (QRWKWRKSLAR; AchR binding peptide) [Peptide L2-106]
OD [3]: 0.926

L3-198 (LPWRERRNGGRSSE; AchR binding peptide) [Peptide L3-198]
OD [2]: 0.78

L3-69 (CVNRVKKSDSKGTW; AchR binding peptide) [Peptide L3-69]
OD [2]: 0.733

KPKREMHK [Peptide L1-79]
OD [1]: 0.583

L2-175 (CVMRCRRSEDK; AchR binding peptide) [Peptide L2-175]
OD [3]: 0.65

L2-44 (NMGRHKRPFLK; AchR binding peptide) [Peptide L2-44]
OD [3]: 0.579

L3-119 (TPLKSRKYWNKHAY; AchR binding peptide) [Peptide L3-119]
OD [2]: 0.693

L3-176 (MIGKCRKCGTKCYA; AchR binding peptide) [Peptide L3-176]
OD [2]: 0.739

L3-158 (FDMRDRRPNARVMP; AchR binding peptide) [Peptide L3-158]
OD [2]: 0.738

L2-105 (IEMKPRKFGVK; AchR binding peptide) [Peptide L2-105]
OD [3]: 0.488

L3-188 (DGIRDKKCCWRDLI; AchR binding peptide) [Peptide L3-188]
OD [2]: 0.738

RSKKSLYR [Peptide L1-53]
OD [1]: 0.78

L3-58 (SLPKWRKGGDRVFT; AchR binding peptide) [Peptide L3-58]
OD [2]: 0.664

KWKRNCTK [Peptide L1-65]
OD [1]: 0.585

KNKRWVFK [Peptide L1-141]
OD [1]: 0.505

L2-197 (CPYRIRRGPGK; AchR binding peptide) [Peptide L2-197]
OD [3]: 0.768

RQKKPWVK [Peptide L1-31]
OD [1]: 0.604

L2-4 (ECYRNRKAYCR; AchR binding peptide) [Peptide L2-4]
OD [3]: 0.757

L3-195 (IEDKSKRFNCKECG; AchR binding peptide) [Peptide L3-195]
OD [2]: 0.7

KMRRVAPR [Peptide L1-176]
OD [1]: 0.479

L3-190 (VHHKLRRVHLRLDV; AchR binding peptide) [Peptide L3-190]
OD [2]: 0.792

L3-99 (PCWKFRRAQMKWGI; AchR binding peptide) [Peptide L3-99]
OD [2]: 0.692

RFRRNFHK [Peptide L1-196]
OD [1]: 0.583

RAKKCYHK [Peptide L1-50]
OD [1]: 0.583

RNKRDENK [Peptide L1-29]
OD [1]: 0.646

L3-35 (LQCKYRRGSDKQPQ; AchR binding peptide) [Peptide L3-35]
OD [2]: 0.747

L3-126 (YVDRWRRMQYKLSI; AchR binding peptide) [Peptide L3-126]
OD [2]: 0.542

KRRRFRWK [Peptide L1-40]
OD [1]: 0.424

RSKKINNK [Peptide L1-71]
OD [1]: 0.618

L3-106 (DLVRKRKTMLRQLV; AchR binding peptide) [Peptide L3-106]
OD [2]: 0.642

L2-162 (NCDRTRKHWAR; AchR binding peptide) [Peptide L2-162]
OD [3]: 0.584

KWRREGFK [Peptide L1-12]
OD [1]: 0.691

L2-36 (FIPKMRKCSPR; AchR binding peptide) [Peptide L2-36]
OD [3]: 0.76

L2-152 (IALKPKRVWLK; AchR binding peptide) [Peptide L2-152]
OD [3]: 0.681

L2-100 (MNYRCKRVQER; AchR binding peptide) [Peptide L2-100]
OD [3]: 0.551

KERKLWWK [Peptide L1-171]
OD [1]: 0.583

L2-163 (PHARTRKNITK; AchR binding peptide) [Peptide L2-163]
OD [3]: 0.725

KEKRLYAR [Peptide L1-149]
OD [1]: 0.34

L2-101 (NGVRERKWQSK; AchR binding peptide) [Peptide L2-101]
OD [3]: 0.592

KVRRVFLK [Peptide L1-132]
OD [1]: 0.541

L2-137 (CACKQRRATSR; AchR binding peptide) [Peptide L2-137]
OD [3]: 0.452

KTRRVDLR [Peptide L1-38]
OD [1]: 0.514

L3-19 (YMKKKRKSLLRTSL; AchR binding peptide) [Peptide L3-19]
OD [2]: 0.796

REKKQEVK [Peptide L1-150]
OD [1]: 0.457

L3-25 (CFQRKRKSLLRVLR; AchR binding peptide) [Peptide L3-25]
OD [2]: 0.807

L3-16 (DYLRSRKMEERFQE; AchR binding peptide) [Peptide L3-16]
OD [2]: 0.797

L2-83 (HQQKCKKTTTK; AchR binding peptide) [Peptide L2-83]
OD [3]: 0.65

RVRRDGHR [Peptide L1-49]
OD [1]: 0.504

L3-18 (EYQKCKKPSFRLTM; AchR binding peptide) [Peptide L3-18]
OD [2]: 0.806

L2-115 (VRAKHRKSSLR; AchR binding peptide) [Peptide L2-115]
OD [3]: 0.837

RIRKITWR [Peptide L1-194]
OD [1]: 0.636

RFRKPTDR [Peptide L1-127]
OD [1]: 0.412

L3-160 (LTSRCKKTFQKNSE; AchR binding peptide) [Peptide L3-160]
OD [2]: 0.792

RIRRGSVR [Peptide L1-57]
OD [1]: 0.408

L2-173 (SWAKARKLVHR; AchR binding peptide) [Peptide L2-173]
OD [3]: 0.705

L2-123 (HDTKCKKMYAK; AchR binding peptide) [Peptide L2-123]
OD [3]: 0.473

L3-31 (LSDKKRKSLLRYDY; AchR binding peptide) [Peptide L3-31]
OD [2]: 0.763

L3-55 (HFPRARRFEHRCML; AchR binding peptide) [Peptide L3-55]
OD [2]: 0.706

L2-10 (TSQKVRKMEAK; AchR binding peptide) [Peptide L2-10]
OD [3]: 0.803

KTKKLYEK [Peptide L1-25]
OD [1]: 0.709

L2-60 (HADKFRRFNMR; AchR binding peptide) [Peptide L2-60]
OD [3]: 0.697

L3-118 (YGIRDRRPMTKHTQ; AchR binding peptide) [Peptide L3-118]
OD [2]: 0.69

L3-127 (WVDRSRKFEDRNCL; AchR binding peptide) [Peptide L3-127]
OD [2]: 0.608

RIKRNNCK [Peptide L1-130]
OD [1]: 0.368

KYKKSFTK [Peptide L1-198]
OD [1]: 0.63

KERKHEAK [Peptide L1-62]
OD [1]: 0.633

RVRRSWIR [Peptide L1-72]
OD [1]: 0.616

L3-136 (PFDRARRDLHRIMM; AchR binding peptide) [Peptide L3-136]
OD [2]: 0.512

L2-121 (HETKPKKDGLR; AchR binding peptide) [Peptide L2-121]
OD [3]: 0.492

L2-169 (HDPRHKKTPTK; AchR binding peptide) [Peptide L2-169]
OD [3]: 0.733

L2-168 (GGAKNKKVVSR; AchR binding peptide) [Peptide L2-168]
OD [3]: 0.725

L2-56 (FICKSRKFYGK; AchR binding peptide) [Peptide L2-56]
OD [3]: 0.713

L3-11 (FMQKCKKWWDRAVF; AchR binding peptide) [Peptide L3-11]
OD [2]: 0.8

KFKRTEGR [Peptide L1-19]
OD [1]: 0.575

L3-144 (CSYKLRRCDMRLWG; AchR binding peptide) [Peptide L3-144]
OD [2]: 0.578
